Data reported in patent US20040014670A1 (AJINOMOTO, published 2004).

T1: rabbit pulmonal angiotensin converting enzyme (Sigma) (rabbit, UniProt P12822 34-1310, limits assumed)
T1 sequence (looked up): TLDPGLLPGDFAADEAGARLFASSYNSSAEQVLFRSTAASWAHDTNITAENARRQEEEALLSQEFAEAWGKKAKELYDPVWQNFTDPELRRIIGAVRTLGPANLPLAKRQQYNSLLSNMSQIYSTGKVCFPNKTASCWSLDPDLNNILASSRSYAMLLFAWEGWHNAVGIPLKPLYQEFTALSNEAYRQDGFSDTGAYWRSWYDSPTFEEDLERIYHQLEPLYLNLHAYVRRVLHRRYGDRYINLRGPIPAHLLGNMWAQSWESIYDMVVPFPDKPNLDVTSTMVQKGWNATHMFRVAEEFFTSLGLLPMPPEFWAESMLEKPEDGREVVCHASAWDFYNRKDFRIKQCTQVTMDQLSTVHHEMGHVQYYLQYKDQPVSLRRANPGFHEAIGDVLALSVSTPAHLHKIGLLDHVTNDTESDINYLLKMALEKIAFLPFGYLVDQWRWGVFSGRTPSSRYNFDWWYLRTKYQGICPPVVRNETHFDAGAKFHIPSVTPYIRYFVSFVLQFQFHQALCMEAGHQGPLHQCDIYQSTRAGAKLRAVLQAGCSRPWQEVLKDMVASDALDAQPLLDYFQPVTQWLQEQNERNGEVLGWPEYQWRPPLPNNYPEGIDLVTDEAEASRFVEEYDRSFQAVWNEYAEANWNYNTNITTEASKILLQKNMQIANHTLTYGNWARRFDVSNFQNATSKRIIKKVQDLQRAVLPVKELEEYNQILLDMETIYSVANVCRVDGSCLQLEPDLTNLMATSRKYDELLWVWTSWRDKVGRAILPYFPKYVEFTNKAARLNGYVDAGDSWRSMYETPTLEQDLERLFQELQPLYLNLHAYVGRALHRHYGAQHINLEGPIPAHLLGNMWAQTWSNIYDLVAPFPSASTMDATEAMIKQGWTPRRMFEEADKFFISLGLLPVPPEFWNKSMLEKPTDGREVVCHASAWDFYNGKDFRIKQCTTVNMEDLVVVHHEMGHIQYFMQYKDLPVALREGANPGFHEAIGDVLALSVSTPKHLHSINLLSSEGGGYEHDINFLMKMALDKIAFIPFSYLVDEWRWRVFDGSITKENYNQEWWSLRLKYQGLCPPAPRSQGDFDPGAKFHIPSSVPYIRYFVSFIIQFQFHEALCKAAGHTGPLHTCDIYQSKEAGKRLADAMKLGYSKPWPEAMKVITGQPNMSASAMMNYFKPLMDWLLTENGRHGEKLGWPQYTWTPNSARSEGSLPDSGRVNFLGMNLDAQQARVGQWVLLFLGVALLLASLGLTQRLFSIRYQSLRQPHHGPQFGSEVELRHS


How the values were obtained:
[1] = molecular target: rabbit pulmonal angiotensin converting enzyme (Sigma) (rabbit) (UniProt P12822); assay: cell-based or functional assay
[2] = molecular target: T1, rabbit pulmonal angiotensin converting …; assay: cell-based or functional assay

Row | Molecule | IC50 (µM), inhibition of angiotensin converting enzyme activity (colorimetry at 505 nm, substrate p-hydroxyl benzoyl glycyl-L-histidyl-L-leucine) [2] [µM] | further results
1 | soybean protein hydrolysates prepared with protease D3 |  | IC50 value, the concentration for 50% inhibition against ACE [1]: 180 µg/mL
2 | Bradykinin potentiator C (peptide) |  | IC50 (µM), inhibition of angiotensin converting enzyme activity (colorimetry at 505 nm, substrate p-hydroxyl benzoyl glycyl-L-histidyl-L-leucine) [1]: 35 µM
3 | PNNKPFQ [Pro-Asn-Asn-Lys-Pro-Phe-Gln] | 33 | 
4 | IPPGVPYWT [Ile-Pro-Pro-Gly-Val-Pro-Tyr-Trp-Thr] | 64 | 
5 | NWGPLV [Asn-Trp-Gly-Pro-Leu-Val] | 21 | 
